# According to US8486893B2, “Treatment of conditions involving demyelination” (Biogen Idec MA Inc., priority 2004, dated 2013):
# How the values were obtained:
# [1] = system: cuprizone-treated mice; assay: Cuprizone demyelination model, stereotactic injection into corpus callosum; assay type: in vivo; conditions: injected into corpus callosum at 2, 2.5 and 3 weeks of cuprizone feeding
# Description: Adult wild-type C57Bl/6 male mice were fed cuprizone (0.2% milled with ground mouse chow by weight) for 6 weeks to induce demyelination within the corpus callosum. Sp35-Fc was stereotactically injected into the demyelinating corpus callosum at 2, 2.5, and 3 weeks of cuprizone feeding. Control mice were stereotactically injected at the same intervals with sterilized media containing no Sp35-Fc. After 6 weeks of cuprizone feeding, the mice were returned to a normal diet for 2, 4 and 6 weeks (ground mouse chow only) to allow remyelination.
# The cuprizone-treated mice were anesthetized with ketamine (80 mg/kg body weight) and xylazine (10 mg/kg body weight) and positioned in an immobilization apparatus designed for stereotactic surgery (David Kopf Instruments). The scalp was opened and the sterile compounds injected (1 μM in […] of HBSS) unilaterally into the acutely demyelinated corpus callosum of the wild-type recipient mice with a […] Hamilton syringe using stereotactic coordinates of 0.7 mm posterior and 0.3 mm lateral to bregma at a depth of 1.7 mm (Messier et al., Pharmacol. Biochem. Behav. 63(2): 313-18 (1999)). Additionally, control recipient mice were stereotactically injected with HBSS containing no compounds. The opening in the skull was filled with Gelfoam, and the area was swabbed with penicillin and streptomycin (Gibco) and the wound was sutured. […]
# [2] = system: co-cultures of dorsal root ganglion (DRG) neurons and oligodendrocytes; assay: In vitro myelination in co-cultures of DRG neurons and oligodendrocytes; assay type: cell-based, rat
# Protocol: The role of Sp35 in myelination was examined in vitro by treating co-cultures of dorsal root ganglion (DRG) neurons and oligodendrocytes with Sp35-Fc and testing for myelination by immunohistochemistry and electron microscopy. For these studies, it was necessary to first generate primary cultures of DRG neurons and of oligodendrocytes.
# Female Long Evans rat E14-E17 embryonic dorsal root ganglia were cultured as described by Plant et al., J. Neurosci. 22:6083-91 (2002). Dissected DRGs were plated on poly-L-lysine-coated cover slips (100 μg/ml) for 2 weeks in the presence of fluorodeoxyuridine for days 2-6 and days 8-11 in NLA medium containing 1× B27, 100 ng/ml NGF (Invitrogen).
# A2B5^+ oligodendrocytes were prepared as described in Example 1, and were harvested by trypsinization.
# For coculture studies, A2B5^+ oligodendrocytes were added to DRG neuron drop cultures in the presence or absence of 10 μg/ml Sp35-Fc. The culture medium (Neurobasal medium supplemented with B27 and 100 ng/ml NGF) was changed, and fresh Sp35-Fc was added to the cells every 3 d. To identify changes in myelination, 2-week-old cultures were stained by immunohistochemical staining (“IHC”) for neurofilaments with anti-βIII-tubulin antibody to identify axons, or anti-MBP antibody to identify oligodendrocytes., and 4-week-old cultures were subjected to SDS-PAGE followed by western blot analyses to quantify the MBP. In selected examples, cells were fixed for electron microscopy studies by adding 2.5% gluteraldehyde directly onto the cover slips. Myelinated axons in the 2-week-old cultures were quantified by counting the number of myelinated internode bundles that were derived from single MBP^+ oligodendrocytes. Samples were analyzed in duplicate. Error bars denote individual determinations. P values in all studies were determined using a one-way analysis of variance.
# Several peptides containing portions of the Ig domain of Sp35 were examined in vitro, by treating co-cultures of dorsal root ganglion (DRG) neurons and oligodendrocytes with Sp35 Ig peptides and testing for myelination as described in Example 5.
# For co-culture studies, A2B5^+ oligodendrocytes were added to DRG neuron drop cultures in the presence or absence of 10 μg/ml Sp35-Ig-Fc (Sp35 amino acids 417-493 fused to Fc). The culture medium (Neurobasal medium supplemented with B27 and 100 ng/ml NGF) was changed, and fresh Sp35-Ig-Fc was added to the cells every 3 d. To identify changes in myelination, 2-week-old cultures were stained by immunohistochemical staining (“IHC”) for neurofilaments with anti-βIII-tubulin antibody to identify axons, or anti-MBP antibody to identify oligodendrocytes and 4-week-old cultures were subjected to SDS-PAGE followed by western blot analyses to quantify the MBP.
# We performed experiments to address the relative contributions to the myelination process of Sp35 in DRG neurons as compared to oligodendrocytes. We infected DRG neurons, oligodendrocytes and co-cultures (prepared as described in Example 5) with the FL-Sp35 and DN-Sp35 lentiviral vectors described in Example 1 and performed immunohistochemical straining for myelinated MBP cells after two weeks. A 2-fold increase in MBP levels in co-cultures where both cells express DN-Sp35 and a 2-fold decrease in MBP levels in co-cultures where both cells express FL-Sp35 was observed (FIG. 10G).
# [3] = system: RhoA-GTP; assay: RhoA-GTP levels in oligodendrocyte lysates by western blotting; assay type: cell-based, rat; conditions: FIG. 9A
# Description: A strong candidate signaling pathway that is implicated in the control of oligodendrocyte differentiation is the Rho family of GTPases. Rho GTPases regulate cellular morphology, and reduced RhoA-GTP amounts are required for oligodendrocyte differentiation. See Liang, X, et al., J. Neurosci. 24:7140-7149 (2004). To determine whether Sp35 signals through the RhoA pathway, RhoAGTP levels in cell lysates of oligodendrocytes treated with Sp35-Fc were compared with levels in the corresponding control via western blotting.
# [4] = system: Caspase-3; assay: Caspase-3 activation in differentiated PC12 cells after NGF withdrawal (Caspase 3/7 Glo); assay type: cell-based
# Protocol: PC12 cells (Neuroscreen) were differentiated in RPMI-1640 medium supplemented with 5% fetal bovine serum, 10% horse serum, 2 mM glutamine, 100 U/ml penicillin and […] streptomycin containing 200 ng/ml NGF for 7 days. For experiments, the culture media was replaced with NGF-free culture media containing Sp35-Fc, human IgG as a negative control (0.1-10 μM), or zVAD as a positive control (0.1 μM). 18 hours after NGF withdrawal, activated Caspase-3 was quantified using the Caspase 3/7 Glo kit (Promega) according to the manufacturer's instructions. 42 hours after NGF withdrawal, apoptotic cell death was quantified using a cell death detection ELISA kit (Roche) according to the manufacturer's instructions.
molecule,measurement,setting,value
"Sp35-Fc: extra-cellular portion of human Sp35 (residues 1-532) fused to the hinge and Fc region of human IgG1 (protein, left off: a dimerising Fc or GST, extra-cellular portion of human Sp35 (residues 1-532) fused to the hinge and Fc region of human IgG1) TGCPPRCECSAQDRAVLCHRKRFVAVPEGIPTETRLLDLGKNRIKTLNQDEFASFPHLEELELNENIVSAVEPGAFNNLFNLRTLGLRSNRLKLIPLGVFTGLSNLTKLDISENKIVILLDYMFQDLYNLKSLEVGDNDLVYISHRAFSGLNSLEQLTLEKCNLTSIPTEALSHLHGLIVLRLRHLNINAIRDYSFKRLYRLKVLEISHWPYLDTMTPNCLYGLNLTSLSITHCNLTAVPYLAVRHLVYLRFLNLSYNPISTIEGSMLHELLRLQEIQLVGGQLAVVEPYAFRGLNYLRVLNVSGNQLTTLEESVFHSVGNLETLILDSNPLACDCRLLWVFRRRWRLNFNRQQPTCATPEFVQGKEFKDFPDVLLPNYFTCRRARIRDRKAQQVFVDEGHTVQFVCRADGDPPPAILWLSPRKHLVSAKSNGRLTVFPDGTLEVRYAQVQDNGTYLCIAANAGGNDSMPAHLHVRSYSPDWPHQPNKTFAFISNQPGE",axon myelination by IHC (anti-MBP antibody or luxol fast blue),[1],increased
same,mature oligodendrocyte survival (CC1 antibody staining),[1]; FIG. 12,increased mature oligodendrocyte survival
same,expression of MBP by western blot,"[2]; 4-week-old treated cocultures, 10 μg/ml for Fc fusions",increased
same,confocal microscopy of myelination,[2]; Sp35-Fc treated cocultures,MBP had encapsulated the axons
same,electron microscopy of myelination,"[2]; cocultures treated 4 weeks, FIG. 10C",Multiple wellformed internodes
same,effect on myelination when both cell types overexpress DN-Sp35,[2]; exogenously added,slight effects
same,effect on myelination when either cell type overexpresses DN-Sp35 alone,[2]; exogenously added,further enhanced myelination
same,effect on myelination in cocultures overexpressing FL-Sp35,"[2]; exogenously added, FL-Sp35 in either or both cell types",reversed the inhibition of myelination
same,axonal myelination (MBP+ myelinated axons),"[2]; treatment for 2 weeks, IHC, FIG. 10A",robust axonal myelination
same,RhoA-GTP amount versus control,[3],threefold reduction
same,Caspase-3 activation,"[4]; 0.1 μM, 18 hours after removal of NGF",reduced Caspase-3 activation
same,dose dependence of effect on Caspase-3 activation,"[4]; 0.1-10 μM, 18 hours after NGF withdrawal",dose-dependent
same,effect on Caspase-3 activation compared with zVAD (0.1 μM),"[4]; 1 or 10 μM, FIG. 14",as effective as a neuroprotective dose of the caspase inhibitor zVAD
